According to US20060177829A1 (NEW YORK UNIVERSITY, published 2006):
Residue numbers refer to the chain shown, from its start. One block for each binder: values may come before it.

What was measured:
[1] = molecular target: T1, Flag-tagged β-TrCP1 (Fbw1a) (human, UniProt Q9Y297 1-605); assay: anti-Flag immunoprecipitation from transfected HeLa cells, blot for Cdc25A
T1 construct: F-box protein expressed from a Flag-tagged construct in HeLa cells and pulled down with anti-Flag resin; also called beta-TrCP1; Flag-beta-TrCP1; not shown: Flag tag
T1 sequence: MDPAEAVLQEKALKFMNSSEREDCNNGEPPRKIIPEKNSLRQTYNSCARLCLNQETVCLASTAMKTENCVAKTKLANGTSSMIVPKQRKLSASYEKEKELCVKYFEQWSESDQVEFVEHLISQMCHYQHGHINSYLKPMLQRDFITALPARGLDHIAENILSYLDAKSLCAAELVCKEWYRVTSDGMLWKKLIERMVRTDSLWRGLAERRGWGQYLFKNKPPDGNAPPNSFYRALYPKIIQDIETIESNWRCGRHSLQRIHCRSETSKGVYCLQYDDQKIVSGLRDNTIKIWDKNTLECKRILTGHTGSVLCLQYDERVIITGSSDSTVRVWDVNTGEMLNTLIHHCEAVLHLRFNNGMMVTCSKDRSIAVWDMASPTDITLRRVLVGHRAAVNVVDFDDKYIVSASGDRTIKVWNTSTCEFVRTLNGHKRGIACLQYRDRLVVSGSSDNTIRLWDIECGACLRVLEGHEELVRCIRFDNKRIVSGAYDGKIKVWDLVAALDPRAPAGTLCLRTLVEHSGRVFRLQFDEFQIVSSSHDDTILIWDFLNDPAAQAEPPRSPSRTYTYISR
Description: (§1) FIG. 1. Cdc25A interacts with beta-TrCP1 and beta-TrCP2 in vivo (I). HeLa cells were transfected with the indicated Flag-tagged F-box protein constructs. F-box proteins were immunoprecipitated from extracts with an anti-Flag resin and immunocomplexes were blotted with Cul1, Cdc25A and Flag specific antibodies.

[2] = molecular target: T2, Flag-tagged β-TrCP2 (Fbw1b) (human, UniProt Q9UKB1 1-542); assay: as above
T2 construct: F-box protein expressed from a Flag-tagged construct in HeLa cells; also called beta-TrCP2; not shown: Flag tag
T2 sequence: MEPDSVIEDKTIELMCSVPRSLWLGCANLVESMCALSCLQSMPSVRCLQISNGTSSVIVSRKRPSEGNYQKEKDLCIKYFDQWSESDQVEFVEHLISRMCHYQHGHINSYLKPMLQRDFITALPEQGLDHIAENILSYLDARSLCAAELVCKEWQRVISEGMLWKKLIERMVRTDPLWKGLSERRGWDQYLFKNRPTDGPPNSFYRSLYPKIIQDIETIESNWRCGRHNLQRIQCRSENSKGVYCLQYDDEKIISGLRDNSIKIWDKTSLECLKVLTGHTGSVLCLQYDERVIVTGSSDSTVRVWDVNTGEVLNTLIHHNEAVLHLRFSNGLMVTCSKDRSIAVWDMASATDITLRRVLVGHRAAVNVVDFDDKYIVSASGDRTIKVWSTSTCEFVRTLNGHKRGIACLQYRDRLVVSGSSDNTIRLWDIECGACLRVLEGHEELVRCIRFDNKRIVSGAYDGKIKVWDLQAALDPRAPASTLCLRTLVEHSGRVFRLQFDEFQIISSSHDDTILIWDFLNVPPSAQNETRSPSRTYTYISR
Description: as §1

[3] = molecular target: T1, Flag-tagged β-TrCP1 (Fbw1a); assay: co-expression in HeLa cells, anti-Flag β-TrCP1 immunocomplexes blotted for Cdc25A
Cul1 (endogenous) = molecular target: T3, Cul1 (endogenous) (human, UniProt Q13616 1-776); assay: Flag-tagged Cdc25A immunocomplexes blotted for Cul1
T3 construct: Human by the cell lines used; also called Cul1 subunit
T3 sequence (Q13616 whole entry): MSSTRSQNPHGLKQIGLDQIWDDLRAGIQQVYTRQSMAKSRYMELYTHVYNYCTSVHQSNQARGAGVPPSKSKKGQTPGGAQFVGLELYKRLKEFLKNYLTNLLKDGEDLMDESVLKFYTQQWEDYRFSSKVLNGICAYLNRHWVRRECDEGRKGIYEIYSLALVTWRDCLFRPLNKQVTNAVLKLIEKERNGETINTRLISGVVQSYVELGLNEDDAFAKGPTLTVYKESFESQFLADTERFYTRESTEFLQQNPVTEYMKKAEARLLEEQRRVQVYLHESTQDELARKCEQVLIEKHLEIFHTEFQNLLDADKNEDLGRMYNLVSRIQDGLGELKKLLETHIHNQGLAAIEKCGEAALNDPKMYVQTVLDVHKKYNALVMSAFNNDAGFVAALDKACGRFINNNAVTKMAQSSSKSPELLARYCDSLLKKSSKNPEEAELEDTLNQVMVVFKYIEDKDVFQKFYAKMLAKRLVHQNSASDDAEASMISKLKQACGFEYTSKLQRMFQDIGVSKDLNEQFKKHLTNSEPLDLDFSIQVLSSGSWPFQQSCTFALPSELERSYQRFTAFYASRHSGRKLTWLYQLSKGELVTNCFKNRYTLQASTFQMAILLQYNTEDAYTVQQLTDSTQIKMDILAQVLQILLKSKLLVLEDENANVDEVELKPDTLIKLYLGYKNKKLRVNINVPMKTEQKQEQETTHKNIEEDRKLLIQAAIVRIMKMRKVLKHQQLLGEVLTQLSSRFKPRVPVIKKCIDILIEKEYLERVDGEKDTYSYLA

β-TrCP1 (endogenous) = molecular target: T4, β-TrCP1 (endogenous) (human, UniProt Q9Y297 1-605); assay: Flag-tagged Cdc25A immunocomplexes blotted for β-TrCP1
T4 construct: also called beta-TrCP
T4 sequence: T1 sequence

Skp1 (endogenous) = molecular target: T5, Skp1 (endogenous) (human, UniProt P63208 2-163); assay: Flag-tagged Cdc25A immunocomplexes blotted for Skp1
T5 construct: Human by the cell lines used
T5 sequence (P63208 2-163 limits assumed): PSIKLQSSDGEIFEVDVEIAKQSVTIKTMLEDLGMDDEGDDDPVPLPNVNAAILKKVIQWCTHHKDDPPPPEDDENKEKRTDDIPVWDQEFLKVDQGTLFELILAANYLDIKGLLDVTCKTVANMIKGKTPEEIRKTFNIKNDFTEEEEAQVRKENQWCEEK

[4] = molecular target: T1, Flag-tagged β-TrCP1 (Fbw1a); assay: anti-Flag immunoprecipitation from HeLa cells co-transfected with His-Cdc25A, blot for Cdc25A
[5] = molecular target: T6, Flag-tagged Fbw7 (form not stated, FIG. 2) (human, UniProt Q969H0 1-707, limits assumed); assay: as above
T6 construct: The Fbw7 of the parallel experiment with overexpressed Cdc25A; not shown: Flag tag
T6 sequence (Q969H0 whole entry): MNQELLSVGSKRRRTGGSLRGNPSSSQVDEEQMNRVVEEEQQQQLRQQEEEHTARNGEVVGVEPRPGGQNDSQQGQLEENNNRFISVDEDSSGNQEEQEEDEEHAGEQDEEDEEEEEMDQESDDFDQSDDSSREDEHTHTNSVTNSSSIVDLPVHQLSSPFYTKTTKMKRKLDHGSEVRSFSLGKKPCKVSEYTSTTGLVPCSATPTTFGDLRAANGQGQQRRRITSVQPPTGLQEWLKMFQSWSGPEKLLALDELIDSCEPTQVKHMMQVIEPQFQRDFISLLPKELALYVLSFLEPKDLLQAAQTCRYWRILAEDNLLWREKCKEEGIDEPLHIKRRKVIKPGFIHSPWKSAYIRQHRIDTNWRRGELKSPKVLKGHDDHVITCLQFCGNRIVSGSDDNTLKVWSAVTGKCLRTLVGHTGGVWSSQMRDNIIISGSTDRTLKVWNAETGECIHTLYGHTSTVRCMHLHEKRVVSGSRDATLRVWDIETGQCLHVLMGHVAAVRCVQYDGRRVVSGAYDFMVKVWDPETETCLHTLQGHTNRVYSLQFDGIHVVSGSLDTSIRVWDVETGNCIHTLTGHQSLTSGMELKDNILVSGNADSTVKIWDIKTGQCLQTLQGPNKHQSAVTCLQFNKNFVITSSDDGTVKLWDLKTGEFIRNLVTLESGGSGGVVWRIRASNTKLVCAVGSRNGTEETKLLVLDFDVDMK

[6] = molecular target: T2, Flag-tagged β-TrCP2 (Fbw1b); assay: as above
Flag-tagged Skp2 = molecular target: T7, Flag-tagged Skp2 (human, UniProt Q13309 1-424, limits assumed); assay: as above
T7 construct: not shown: Flag tag
T7 sequence (Q13309 whole entry): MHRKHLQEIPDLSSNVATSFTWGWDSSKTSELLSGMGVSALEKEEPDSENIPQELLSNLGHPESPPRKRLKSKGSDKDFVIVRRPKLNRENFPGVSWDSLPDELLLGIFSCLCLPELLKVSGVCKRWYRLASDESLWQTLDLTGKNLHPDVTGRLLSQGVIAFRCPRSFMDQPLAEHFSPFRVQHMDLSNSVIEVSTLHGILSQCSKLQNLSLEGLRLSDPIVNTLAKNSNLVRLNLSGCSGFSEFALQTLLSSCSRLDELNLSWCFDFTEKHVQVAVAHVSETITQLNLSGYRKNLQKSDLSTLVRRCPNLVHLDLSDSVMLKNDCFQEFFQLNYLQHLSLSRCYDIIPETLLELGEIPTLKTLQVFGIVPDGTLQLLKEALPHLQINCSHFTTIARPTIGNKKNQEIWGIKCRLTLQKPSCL

binding result [3]: no binding
B3: His-tagged Cdc25A DSG3x (enzyme)
chain: MELGPSPAPRRLLFACSPPPASQPVVKALFGASAAGGLSPVTNLTVTMDQLQGLGSDYEQPLEVKNNSNLQRMGSSEATDAGFCLDAPGPLDSKENLENPMRRIHSLPQKLLGCSPALKRSHSDSLDHDIFQLIDPDENKENEAFEFKKPVRPVSRGCLHSHGLQEGKDLFTQRQNSAQLGMLSSNERDSSEPGNFIPLFTPQSPVTATLSDEDDGFVDLLDGENLKNEEETPSCMASLWTAPLVMRTTNLDNRCKLFDSPSLCSSSTRSVLKRPERSQEESPPGSTKRRKSMSGASPKESTNPEKAHETLHQSLSLASSPKGTIENILDNDPRDLIGDFSKGYLFHTVAGKHQDLKYISPEIMASVLNGKFANLIKEFVIIDCRYPYEYEGGHIKGAVNLHMEEEVEDFLLKKPIVPTDGKRVIVVFHCEFSSERGPRMCRYVRERDRLGNEYPKLHYPELYVLKGGYKEFFMKCQSYCEPPSYRPMHHEDFKEDLKKFRTKSRTWAGEKSKREMYSRLKKL
notes: not shown: His tag

binding result (Cul1 (endogenous)): no binding
binding result (β-TrCP1 (endogenous)): no binding
binding result (Skp1 (endogenous)): no binding
B4: Flag-tagged Cdc25A DSG2x (enzyme)
chain: B3 chain with A78S
notes: Point mutant of the full-length pCDNA3.1-Flag-Cdc25A construct; also called DSG2x mutated protein; DSG2x protein; not shown: Flag tag from pCDNA3.1-Flag vector

The remaining lines, values behind:

B1: Cdc25A (endogenous, HeLa cells) (enzyme)
chain: B3 chain with A78S, A81S, A87S
modifications: hyperphosphorylated in the form that co-precipitates with beta-TrCP (λ-phosphatase gave a faster migrating band); sites not mapped in that experiment
notes: also called cell division cycle 25A
binding result [1]: binds
binding result [2]: binds

B2: His-tagged Cdc25A DSG2x (enzyme)
chain: B3 chain with A78S
notes: not shown: His tag
binding result [3]: no binding

B5: His-Cdc25A (overexpressed wild type) (enzyme)
chain: B3 chain with A78S, A81S, A87S
notes: also called overexpressed Cdc25A; not shown: His tag
binding result [4]: binds
binding result [5]: no binding
binding result [6]: binds
binding result (Flag-tagged Skp2): no binding
